Data reported in article PMC8299537.

Target: DPP9, short isoform (His-TEV-DPP9), co-purified with NLRP1ΔΔ (human), Q86TI2
Assay: cryo-EM structure
Conditions: remark: other sources report otherwise

B1: DPP9, short isoform (His-TEV-DPP9), co-purified with NLRP1ΔΔ, Q86TI2-1 1-863 (enzyme)
chain: MATTGTPTADRGDAAATDDPAARFQVQKHSWDGLRSIIHGSRKYSGLIVNKAPHDFQFVQKTDESGPHSHRLYYLGMPYGSRENSLLYSEIPKKVRKEALLLLSWKQMLDHFQATPHHGVYSREEELLRERKRLGVFGITSYDFHSESGLFLFQASNSLFHCRDGGKNGFMVSPMKPLEIKTQCSGPRMDPKICPADPAFFSFINNSDLWVANIETGEERRLTFCHQGLSNVLDDPKSAGVATFVIQEEFDRFTGYWWCPTASWEGSEGLKTLRILYEEVDESEVEVIHVPSPALEERKTDSYRYPRTGSKNPKIALKLAEFQTDSQGKIVSTQEKELVQPFSSLFPKVEYIARAGWTRDGKYAWAMFLDRPQQWLQLVLLPPALFIPSTENEEQRLASARAVPRNVQPYVVYEEVTNVWINVHDIFYPFPQSEGEDELCFLRANECKTGFCHLYKVTAVLKSQGYDWSEPFSPGEDEFKCPIKEEIALTSGEWEVLARHGSKIWVNEETKLVYFQGTKDTPLEHHLYVVSYEAAGEIVRLTTPGFSHSCSMSQNFDMFVSHYSSVSTPPCVHVYKLSGPDDDPLHKQPRFWASMMEAASCPPDYVPPEIFHFHTRSDVRLYGMIYKPHALQPGKKHPTVLFVYGGPQVQLVNNSFKGIKYLRLNTLASLGYAVVVIDGRGSCQRGLRFEGALKNQMGQVEIEDQVEGLQFVAEKYGFIDLSRVAIHGWSYGGFLSLMGLIHKPQVFKVAIAGAPVTVWMAYDTGYTERYMDVPENNQHGYEAGSVALHVEKLPNEPNRLLILHGFLDENVHFFHTNFLVSQLIRAGKPYQLQIYPNERHSIRCPESGEHYEVTLLHFLQEYL
B1 was tested, and the stoichiometry N was 2.
